Experimental findings from PMC9580340 are described below.

The term pKd denotes −log10 of the Kd, conventionally taken in molar units. Low readings indicate a high Kd, high ones a low Kd.

pKd: −log10 of the molar value.

This assay has as its target soluble dimeric human ACE2, Fc-tagged, biotinylated (ACRO Biosystems AC2-H82F9) (human) (UniProt Q9BYF1). Description: SPR.
With “SARS-CoV-2 WA-1 S2P spike trimer (binding studies) (domain or fragment)”, the negative-log Kd (pKd) was 8.96.

The substance “SARS-CoV-2 B.1.1.529 S2P spike trimer (binding studies) (domain or fragment)” gave a pKd of 8.42 to 9.23.

As to “SARS-CoV-2 D614G S2P spike trimer (binding studies) (domain or fragment)”, the negative logarithm of the Kd (pKd) was 9.14.
